From patent US20110076730A1 (priority 2006, published 2011)
Like-named read-outs stand apart in the source and are kept apart here.

How the values were obtained:
[1] = format: biochemical; conditions: read-out: D-xylose Km
[2] = format: biochemical; conditions: read-out: L-arabinose Km
[3] = format: biochemical; conditions: read-out: Cofactor Km
[4] = format: biochemical; conditions: pH 8.3

B1: Xdh-B. fungorum: D-xylose dehydrogenase (Xdh) from Burkholderia fungorum LB400, protein RBU11704 in the ERGO database (protein)
chain: MYLLSYPEQVDYPMSYAIYPSLSGKTVVITGGGSGIGAAMVEAFARQGARVFFLDVAEDDSLALQQSLSDAPHPPLFRRCDLRSVDAIHSAFAGIVEIAGPIEVLVNNAGNDDRHEVDAITPAYWDERMAVNLRHQFFCAQAAAAGMRKIGRGVILNLGSVSWHLALPNLAIYMSAKAGIEGLTRGLARDLGAAGIRVNCIIPGAVRTPRQMQLWQSPESEAKLVASQCLRLRIEPEHVARMALFLASDDASRCSGRDYFVDAGWYGE
modifications: Burkholderia fungorum LB400
notes: D-xylose dehydrogenase (Xdh) from Burkholderia fungorum LB400, protein RBU11704 in the ERGO database
- Km [1]: 970 µM
- Km [2]: 43 mM
- Km [3]: 260 µM
- D-fructose, D-galactose, D-mannose, 2-deoxy-D-glucose, D-glucose-6-phosphate and D-ribose as substrates [4]: not the substrates
- Oxidation of D-xylose, L-arabinose and D-glucose into corresponding sugar acid [4]: could be oxidized

B2: Xdh-C. crescentus: D-xylose dehydrogenase (Xdh) from Caulobacter crescentus CB15, protein RC001012 in the ERGO database (protein)
chain: MSSAIYPSLKGKRVVITGGGSGIGAGLTAGFARQGAEVIFLDIADEDSRALEAELAGSPIPPVYKRCDLMNLEAIKAVFAEIGDVDVLVNNAGNDDRHKLADVTGAYWDERINVNLRHMLFCTQAVAPGMKKRGGGAVINFGSISWHLGLEDLVLYETAKAGIEGMTRALARELGPDDIRVTCVVPGNVKTKRQEKWYTPEGEAQIVAAQCLKGRIVPENVAALVLFLASDDASLCTGHEYWIDAGWR
modifications: Caulobacter crescentus CB15
notes: D-xylose dehydrogenase (Xdh) from Caulobacter crescentus CB15, protein RC001012 in the ERGO database
- Km [1]: 99 µM
- Km [2]: 34 mM
- Km [3]: 130 µM
- D-fructose, D-galactose, D-mannose, 2-deoxy-D-glucose, D-glucose-6-phosphate and D-ribose as substrates [4]: not the substrates
- Oxidation of D-xylose, L-arabinose and D-glucose into corresponding sugar acid [4]: could be oxidized
